# According to the supplement of paper PMC9112550, “Optimization of the antimicrobial peptide Bac7 by deep mutational scanning” (BMC Biology, 2022):
# Tested on: Escherichia coli TOP10
# Test: shrunken log2 fold change of peptide-encoding DNA abundance (4.5 h post-induction vs induction); higher = less antimicrobial activity (less host growth inhibition)
# Conditions: time post-induction: 4.5 h; library: site-saturation at positions 5, 18, 19, 20
# 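Further: peptides expressed intracellularly from a pBAD plasmid library in pooled LB shake-flask culture, induced with 0.3% L-arabinose, DNA abundance read by NGS, three biological replicates, DESeq2 with apeglm shrinkage.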
row,Sequence,shrunken log2 fold change
1,RRIRLRPPRLPRPRPRPTYAPRP,-0.167
2,RRIRLRPPRLPRPRPRPTYSPRP,-0.572
3,RRIRLRPPRLPRPRPRPVATPRP,0.282
4,RRIRLRPPRLPRPRPRPVCKPRP,0.000959
5,RRIRLRPPRLPRPRPRPVFMPRP,-0.203
6,RRIRLRPPRLPRPRPRPVHFPRP,-0.272
7,RRIRLRPPRLPRPRPRPVIAPRP,-0.176
8,RRIRLRPPRLPRPRPRPVIYPRP,-0.224
9,RRIRLRPPRLPRPRPRPVKSPRP,-0.075
10,RRIRLRPPRLPRPRPRPVLQPRP,0.195
11,RRIRLRPPRLPRPRPRPVMAPRP,0.0839
12,RRIRLRPPRLPRPRPRPVMEPRP,0.233
13,RRIRLRPPRLPRPRPRPVMTPRP,-0.148
14,RRIRLRPPRLPRPRPRPVMYPRP,-0.302
15,RRIRLRPPRLPRPRPRPVQEPRP,-0.0609
16,RRIRLRPPRLPRPRPRPVQKPRP,0.113
17,RRIRLRPPRLPRPRPRPVQTPRP,0.102
18,RRIRLRPPRLPRPRPRPVRCPRP,0.0127
19,RRIRLRPPRLPRPRPRPVRFPRP,1.26
20,RRIRLRPPRLPRPRPRPVSHPRP,0.0743
21,RRIRLRPPRLPRPRPRPVSKPRP,-0.181
22,RRIRLRPPRLPRPRPRPVWPPRP,0.422
23,RRIRLRPPRLPRPRPRPVWTPRP,0.00633
24,RRIRLRPPRLPRPRPRPWAEPRP,0.13
25,RRIRLRPPRLPRPRPRPWAKPRP,0.173

row,Sequence,shrunken log2 fold change
1,RRIRLRPPRLPRPRPRPWCDPRP,-0.437
2,RRIRLRPPRLPRPRPRPWDSPRP,-0.145
3,RRIRLRPPRLPRPRPRPWIEPRP,-0.00922
4,RRIRLRPPRLPRPRPRPWMIPRP,-0.0928
5,RRIRLRPPRLPRPRPRPWQAPRP,0.226
6,RRIRLRPPRLPRPRPRPWQMPRP,0.123
7,RRIRLRPPRLPRPRPRPWQTPRP,-0.0245
8,RRIRLRPPRLPRPRPRPWREPRP,-0.018
9,RRIRLRPPRLPRPRPRPWSCPRP,-0.136
10,RRIRLRPPRLPRPRPRPWSNPRP,-0.195
11,RRIRLRPPRLPRPRPRPWSTPRP,-0.137
12,RRIRLRPPRLPRPRPRPWVMPRP,-1.02
13,RRIRLRPPRLPRPRPRPWWCPRP,-0.0878
14,RRIRLRPPRLPRPRPRPWWMPRP,-0.0102
15,RRIRLRPPRLPRPRPRPWWNPRP,-0.426
16,RRIRLRPPRLPRPRPRPWYNPRP,0.111
17,RRIRLRPPRLPRPRPRPWYTPRP,-0.57
18,RRIRLRPPRLPRPRPRPYCMPRP,-1.34
19,RRIRLRPPRLPRPRPRPYCSPRP,-0.00936
20,RRIRLRPPRLPRPRPRPYEKPRP,-0.159
21,RRIRLRPPRLPRPRPRPYERPRP,-0.148
22,RRIRLRPPRLPRPRPRPYFDPRP,-0.255
23,RRIRLRPPRLPRPRPRPYHQPRP,-0.026
24,RRIRLRPPRLPRPRPRPYHYPRP,-0.16
25,RRIRLRPPRLPRPRPRPYIVPRP,-0.0573

row,Sequence,shrunken log2 fold change
1,RRIRLRPPRLPRPRPRPYMFPRP,-0.123
2,RRIRLRPPRLPRPRPRPYMKPRP,-0.804
3,RRIRLRPPRLPRPRPRPYNCPRP,-0.053
4,RRIRLRPPRLPRPRPRPYNPPRP,-0.454
5,RRIRLRPPRLPRPRPRPYNQPRP,-0.693
6,RRIRLRPPRLPRPRPRPYPAPRP,-0.368
7,RRIRLRPPRLPRPRPRPYQVPRP,-0.0302
8,RRIRLRPPRLPRPRPRPYQWPRP,-0.241
9,RRIRLRPPRLPRPRPRPYRGPRP,-0.246
10,RRIRLRPPRLPRPRPRPYRMPRP,-1.54
11,RRIRLRPPRLPRPRPRPYSTPRP,-1.09
12,RRIRLRPPRLPRPRPRPYSYPRP,-0.977
13,RRIRLRPPRLPRPRPRPYTFPRP,-0.00482
14,RRIRLRPPRLPRPRPRPYTQPRP,-0.845
15,RRIRLRPPRLPRPRPRPYVPPRP,-0.383
16,RRIRLRPPRLPRPRPRPYWDPRP,-0.195
17,RRIRMRPPRLPRPRPRPAAAPRP,2.93
18,RRIRMRPPRLPRPRPRPACPPRP,0.262
19,RRIRMRPPRLPRPRPRPADTPRP,0.367
20,RRIRMRPPRLPRPRPRPAEVPRP,0.411
21,RRIRMRPPRLPRPRPRPAFMPRP,0.211
22,RRIRMRPPRLPRPRPRPAGVPRP,0.688
23,RRIRMRPPRLPRPRPRPAHGPRP,0.226
24,RRIRMRPPRLPRPRPRPAHKPRP,0.534
25,RRIRMRPPRLPRPRPRPAHWPRP,0.792

row,Sequence,shrunken log2 fold change
1,RRIRMRPPRLPRPRPRPAITPRP,0.0226
2,RRIRMRPPRLPRPRPRPALTPRP,0.433
3,RRIRMRPPRLPRPRPRPALWPRP,0.858
4,RRIRMRPPRLPRPRPRPAMTPRP,1.35
5,RRIRMRPPRLPRPRPRPANWPRP,2.4
6,RRIRMRPPRLPRPRPRPAPHPRP,1.33
7,RRIRMRPPRLPRPRPRPAQFPRP,-0.107
8,RRIRMRPPRLPRPRPRPAQRPRP,0.987
9,RRIRMRPPRLPRPRPRPASKPRP,0.0582
10,RRIRMRPPRLPRPRPRPATQPRP,1.14
11,RRIRMRPPRLPRPRPRPATYPRP,0.0281
12,RRIRMRPPRLPRPRPRPAVHPRP,0.0654
13,RRIRMRPPRLPRPRPRPAVSPRP,0.494
14,RRIRMRPPRLPRPRPRPAWEPRP,0.655
15,RRIRMRPPRLPRPRPRPAYFPRP,-0.197
16,RRIRMRPPRLPRPRPRPAYQPRP,-0.233
17,RRIRMRPPRLPRPRPRPCAIPRP,-0.216
18,RRIRMRPPRLPRPRPRPCAKPRP,0.207
19,RRIRMRPPRLPRPRPRPCALPRP,0.738
20,RRIRMRPPRLPRPRPRPCCDPRP,0.393
21,RRIRMRPPRLPRPRPRPCCMPRP,-0.167
22,RRIRMRPPRLPRPRPRPCDFPRP,-0.121
23,RRIRMRPPRLPRPRPRPCDYPRP,-0.163
24,RRIRMRPPRLPRPRPRPCFGPRP,-0.23
25,RRIRMRPPRLPRPRPRPCGLPRP,0.533

row,Sequence,shrunken log2 fold change
1,RRIRMRPPRLPRPRPRPCGPPRP,0.481
2,RRIRMRPPRLPRPRPRPCHAPRP,-0.00133
3,RRIRMRPPRLPRPRPRPCHLPRP,-0.0745
4,RRIRMRPPRLPRPRPRPCHQPRP,-0.0062
5,RRIRMRPPRLPRPRPRPCIPPRP,-0.159
6,RRIRMRPPRLPRPRPRPCLRPRP,-0.0737
7,RRIRMRPPRLPRPRPRPCMWPRP,0.138
8,RRIRMRPPRLPRPRPRPCNAPRP,0.0226
9,RRIRMRPPRLPRPRPRPCNLPRP,-0.369
10,RRIRMRPPRLPRPRPRPCPNPRP,0.0197
11,RRIRMRPPRLPRPRPRPCPTPRP,0.11
12,RRIRMRPPRLPRPRPRPCTLPRP,-0.192
13,RRIRMRPPRLPRPRPRPCTYPRP,-0.00141
14,RRIRMRPPRLPRPRPRPCVIPRP,-0.04
15,RRIRMRPPRLPRPRPRPCVWPRP,0.245
16,RRIRMRPPRLPRPRPRPCWKPRP,-0.0216
17,RRIRMRPPRLPRPRPRPCYFPRP,-0.289
18,RRIRMRPPRLPRPRPRPDAHPRP,0.0846
19,RRIRMRPPRLPRPRPRPDAIPRP,0.164
20,RRIRMRPPRLPRPRPRPDANPRP,3.18
21,RRIRMRPPRLPRPRPRPDCEPRP,2.29
22,RRIRMRPPRLPRPRPRPDCNPRP,2.08
23,RRIRMRPPRLPRPRPRPDCYPRP,-0.15
24,RRIRMRPPRLPRPRPRPDEAPRP,2.2
25,RRIRMRPPRLPRPRPRPDEGPRP,-0.0141

row,Sequence,shrunken log2 fold change
1,RRIRMRPPRLPRPRPRPDFSPRP,0.0199
2,RRIRMRPPRLPRPRPRPDGMPRP,1.73
3,RRIRMRPPRLPRPRPRPDIRPRP,-0.00649
4,RRIRMRPPRLPRPRPRPDKIPRP,0.179
5,RRIRMRPPRLPRPRPRPDLMPRP,-0.0157
6,RRIRMRPPRLPRPRPRPDNEPRP,0.379
7,RRIRMRPPRLPRPRPRPDPDPRP,0.634
8,RRIRMRPPRLPRPRPRPDPYPRP,-0.0396
9,RRIRMRPPRLPRPRPRPDQHPRP,0.237
10,RRIRMRPPRLPRPRPRPDQIPRP,0.0408
11,RRIRMRPPRLPRPRPRPDSDPRP,2.6
12,RRIRMRPPRLPRPRPRPDSKPRP,0.732
13,RRIRMRPPRLPRPRPRPDTCPRP,1.25
14,RRIRMRPPRLPRPRPRPDTRPRP,-0.0141
15,RRIRMRPPRLPRPRPRPDVDPRP,0.104
16,RRIRMRPPRLPRPRPRPDWMPRP,-0.0455
17,RRIRMRPPRLPRPRPRPDWPPRP,0.637
18,RRIRMRPPRLPRPRPRPDYMPRP,-0.00256
19,RRIRMRPPRLPRPRPRPEAPPRP,3.4
20,RRIRMRPPRLPRPRPRPEARPRP,1.76
21,RRIRMRPPRLPRPRPRPECWPRP,2.25
22,RRIRMRPPRLPRPRPRPECYPRP,-0.192
23,RRIRMRPPRLPRPRPRPEDCPRP,0.0737
24,RRIRMRPPRLPRPRPRPEDTPRP,1.94
25,RRIRMRPPRLPRPRPRPEEEPRP,0.0412
